Results: PMC9505826, “A Peptide Inhibitor of the Human Cytomegalovirus Core Nuclear Egress Complex” (Pharmaceuticals, 2022)

B1: recombinant HCMV pUL50 (His-tagged) (natural protein)
chain: MEMNKVLHQDLVQATRRILKLGPSELRVTDAGLICKNPNYSVCDAMLKTDTVYCVEYLLSYWESRTDHVPCFIFKNTGCAVSLCCFVRAPVKLVSPARHVGEFNVLKVNESLIVTLKDIEEIKPSAYGVLTKCVVRKSNSASVFNIELIAFGPENEGEYENLLRELYAKKAASTS
notes: also called His-tagged pUL50
B2: Hook peptide (acetylated pUL53 hook peptide, residues 59-87) (peptide)
peptide: Ac-LTLHDLHDIFREHPELELKYLNMMKMAIT-NH2
notes: source: synthetic peptide (Fmoc solid-phase synthesis, HPLC purified)

Legend:
[1] = molecular target: T1, Fluo-NLS-CPP (fluoresceinylated; pUL53 NLS 18-27 joined to HIV-1 Tat 47-59) (human cytomegalovirus (HCMV) | human …); test: fluorescence polarisation; 25 nM N-terminally fluoresceinylated peptide; recombinant pUL50 in two-fold serial dilutions from 20 µM; 0.1 M PB, 150 mM NaCl, 1 mM TCEP, pH 7.2, 0.01% Tween 20; conditions: both partners purified
T1 construct: also called Fluo-NLS-CPP peptide; source: synthetic peptide (Fmoc solid-phase synthesis, HPLC purified)

[2] = molecular target: B1; test: ELISA; competition: pUL53 (1 µg/mL) coated on Immulon plates; peptide in serial dilutions from 10 µM together with His-tagged pUL50 (0.78 µg/mL) for 2.5 h; detection with anti-His-HRP; 0.1 M phosphate buffer pH 7.2, 0.1% BSA, 0.01% Tween 20; conditions: both partners purified

Binder	Kd [1] [nM]	IC50 [2] [nM]
B1	> 10000	–
B2	–	125
